Assays:
[1] = target: T1, soluble HLA-DRB1*04:01 human MHC II protein (human); assay: soluble-phase competition vs biotin-labelled control peptide, Eu3+-streptavidin time-resolved fluorescence
T1 construct: Soluble protein purchased from the Benaroya Research Institute; also called HLA-DR4; DR4

[2] = target: T2, soluble HLA-DRB1*03:01 human MHC II protein (human); assay: as above
T2 construct: Soluble protein purchased from the Benaroya Research Institute; also called HLA-DR3; DR3

Binder	binding result [1]	binding result [2]
HCHGCVRYFLRVPCWKI (P1 with the linker GG replaced by VRY) [P6 peptide HCHGCVRYFLRVPCWKI]	binds	binds
HCPYCGGFLRVPCWKI (P1 with the motif HCHGC replaced by HCPYC) [P7 peptide HCPYCGGFLRVPCWKI]	binds	binds
HCHGCGGFLRVPCWKI (Synthetic; disclosed in WO2017182528; also called control P1 peptide; prior art peptide P1) [P1 peptide HCHGCGGFLRVPCWKI]	binds	binds
KCRCVRYFLRVPSWKITLFKK (P4 with the motif KHCPYC replaced by KCRC) [P9 peptide KCRCVRYFLRVPSWKITLFKK]	binds	binds
KHCPYCGGFLRVPSWKITLFKK (P4 with the linker VRY replaced by GG) [P11 peptide KHCPYCGGFLRVPSWKITLFKK]	binds	binds
KHCPYCVRYFLRVPSWKITLFKK (Synthetic) [P4 peptide KHCPYCVRYFLRVPSWKITLFKK]	binds	binds
KHCPYCVRYFLRVPCWKITLFKK (Synthetic) [P5 peptide KHCPYCVRYFLRVPCWKITLFKK]	binds	binds
KHCHGCVRYFLRVPSWKITLFKK (P4 with the motif KHCPYC replaced by KHCHGC) [P8 peptide KHCHGCVRYFLRVPSWKITLFKK]	binds	binds
KCRPYCVRYFLRVPSWKITLFKK (P4 with the motif KHCPYC replaced by KCRPYC) [P10 peptide KCRPYCVRYFLRVPSWKITLFKK]	binds	binds

Reference: patent US20230340061A1, “PEPTIDES AND METHODS FOR THE TREATMENT OF MULTIPLE SCLEROSIS” (IMCYSE SA, priority 2020, published 2023)
